We go through two substances from patent JP2006342173A.

The target in assay [1] is ヒトCD40ヒトFC (human CD40 extracellular region fused to human IgG1 FC) (human) (UniProt P25942). Kind of assay: SPR, BIAcore 2000; CD40 human FC immobilised on CM5; control IgG added first, then soluble CD40L 10 ug/ml; difference before and after CD40L. On the technique in general: SPR reads the build-up and loss of mass on a sensor chip optically.
Assay [2] addresses ヒトCD40 (human CD40 expressed on cells) (human) (UniProt P25942). Kind of assay: cell-based or functional assay.

“可溶性CD40リガンド (soluble CD40 ligand, FLAG-tagged, ALEXIS CORPORATION) (from UniProt P29965 116-261)” displayed a CD40Lの結合量 (RU) in assay [1] of 100 RU.
In turn, “5D12抗体 (mouse anti-human CD40 antibody, ATCC No.HB-11339)” showed a 扁桃腺B細胞の増殖抑制 ([3H]チミジン; flag標識CD40L+エンハンサー抗体刺激) in assay [2] of 50%.
